Ends that are not written are not given here. Peptide text beside a SMILES is read from it. * marks the point of attachment. Fluorescein(5-NHCOCH2) = O=C(C*)Nc1ccc2c(c1)C(=O)OC21c2ccc(O)cc2Oc2cc(O)ccc21
T1: hERα-LBD (ligand binding domain of estrogen receptor α) (human, UniProt P03372 297-554)
T1 construct: Assayed with estradiol, diethylstilbestrol, genistein or tamoxifen present; the ligand is named under assay in each row
T1 sequence (looked up): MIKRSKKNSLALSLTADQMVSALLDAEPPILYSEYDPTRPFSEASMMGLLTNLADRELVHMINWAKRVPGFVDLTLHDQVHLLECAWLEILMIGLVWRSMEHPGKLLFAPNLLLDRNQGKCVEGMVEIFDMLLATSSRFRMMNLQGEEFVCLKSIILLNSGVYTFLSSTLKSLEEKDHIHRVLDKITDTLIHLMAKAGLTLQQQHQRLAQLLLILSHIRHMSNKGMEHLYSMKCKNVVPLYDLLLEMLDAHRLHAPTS

T2: hERα-LBD (Homo sapiens, UniProt P03372)
T2 construct: The receptor ERα-LBD or TRβ-LBD, expressed using reported protocols; made in house
T2 sequence (P03372 311-547 limits assumed): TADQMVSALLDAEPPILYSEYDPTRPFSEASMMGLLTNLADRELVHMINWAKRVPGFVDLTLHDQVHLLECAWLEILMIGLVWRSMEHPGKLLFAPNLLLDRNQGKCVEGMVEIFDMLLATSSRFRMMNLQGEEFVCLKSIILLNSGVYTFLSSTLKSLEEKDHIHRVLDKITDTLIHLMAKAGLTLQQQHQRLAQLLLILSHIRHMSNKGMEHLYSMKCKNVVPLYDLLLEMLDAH

T3: hTRβ-LBD (ligand binding domain of thyroid hormone receptor β) (human, UniProt P10828 202-461)
T3 construct: Assayed with the small-molecule ligand T3 present
T3 sequence (looked up): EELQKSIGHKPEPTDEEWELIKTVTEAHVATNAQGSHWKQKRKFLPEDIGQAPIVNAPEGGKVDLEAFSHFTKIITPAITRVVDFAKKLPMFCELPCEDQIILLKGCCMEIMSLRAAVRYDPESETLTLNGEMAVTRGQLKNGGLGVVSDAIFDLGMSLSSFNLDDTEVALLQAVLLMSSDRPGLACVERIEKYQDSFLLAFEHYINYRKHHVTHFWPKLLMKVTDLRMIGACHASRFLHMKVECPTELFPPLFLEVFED


Each molecule was assayed against T1, hERα-LBD (ligand binding domain of …) (assay: fluorescence polarization, labelled peptide 10 nM, hERα-LBD titrated, genistein present). Settings: not given.
Procedure: (§1) The concentration of protein varied between 0.001-20 μM in the following way. In 96 well plates, hTRβ-LBD or hERα-LBD was serially diluted from 40 μM to 0.002 μM in binding buffer (50 mM Sodium Phosphate, 150 mM NaCl, pH 7.2, 1 mM DTT, 1 mM EDTA, 0.01% NP40, 10% glycerol), containing 200 μM ligand (T₃, for TRβ, or estradiol, diethylstilbestrol, genistein or tamoxifen for ERα).
(§2) Subsequently 10 μL of diluted protein was added to 10 μL of fluorescent coregulator peptide (20 nM) in 384-well plates yielding final protein concentrations of […] and 10 nM fluorescent peptide concentration. The samples were allowed to equilibriate for 30 minutes. Binding was then measured using fluorescence polarization (excitation λ at 485 nm, emission λ at 530 nm) on an Analyst AD (available from Molecular Devices).
(§3) All experiments were carried out in quadruplicate, with each iteration containing the positive and negative controls, and 10-12 dose points. The data were then fit using Klotz plots to determine IC₅₀ values using nonlinear regression analysis that fits the data to a modification of the model of Heyduk and Lee. (Heyduk et al., Proc. Natl. Acad. Sci., (1990), 1774; Heyduk et al., Nature, (1993), 364, 6437; Heyduk et al., Methods Enzymol., 274, 492. Further analysis was conducted using Hill and Scatchard plots to confirm number and homogeneity of binding sites as discussed hereinbelow.
Work on C(5‑iodoacetamidofluorescein)LTARHKILHRLLQEGSPSD [SRC1-2 coregulator peptide] yielded a Kd of 298 nM. With CLKEKHKILHRLLQDSSSPV (5-iodoacetamidofluorescein coupled to the amino terminal cysteine, also called SRC2-2 peptide) [SRC2-2 coregulator peptide] the Kd was 569 nM. C(5‑iodoacetamidofluorescein)YSQTSHKLVQLLTTTAEQQ [SRC1-1 coregulator peptide] showed a Kd of 5000 nM. Work on C(5‑iodoacetamidofluorescein)LQEKHRILHKLLQNGNSPA [SRC3-2 coregulator peptide] yielded a Kd of 1030 nM. With C(5‑iodoacetamidofluorescein)DSKGQTKLLQLLTTKSDQM [SRC2-1 coregulator peptide] the Kd was 2600 nM. C(5‑iodoacetamidofluorescein)ESKDHQLLRYLLDKDEKDL [SRC1-3 coregulator peptide] gave a Kd of 2550 nM.

Each molecule was assayed against T2, hERα-LBD (assay: Fluorescence polarization assay of coregulator peptide binding to ERα-LBD). Settings: ERα-LBD in the presence of estradiol; read-out: Dissociation constant for ERα, Estradiol.
Procedure: The peptide library synthesized in Example 1 was assayed with ERα or TRβ receptor. Library members were kept at a constant concentration of 10 nM. A ligand was optionally added to the nuclear hormone receptor.
as §1, with “The receptor ERα-LBD or TRβ-LBD, expressed using reported protocols (for TR see, e.g., Darimont et al., Genes Dev., 12(21):3343-56, (1998); and for ER, see, e.g., Shiau et al., Cell, (1998), 95(7):927-937), was used. The” for “The”, “(T3,” for “(T₃,”
as §2
as §3, with “IC50” for “IC₅₀”
FIG. 6 illustrates direct binding of SRC2-2 to ERα-LBD in the presence of the ligands estradiol, diethylstilbestrol and genistein. […] Measured dissociation constants for binding of members of the SRC peptide library to ERα, in the presence of 3 different ligands, are illustrated in Table 4 wherein the binding units are μM. Table 5 illustrates a comparison of binding constants (μM) for SRC peptides with the TRβ receptor in the presence of thyroid hormone T3, and the ERα receptor in the presence of estradiol.
In the case of `CC(C)C[C@H](NC(=O)[C@H](CCC(N)=O)NC(=O)[C@@H](NC(=O)[C@H](CC(C)C)NC(=O)[C@H](CCCCN)NC(=O)[C@H](Cc1c[nH]cn1)NC(=O)[C@H](CO)NC(=O)[C@@H](NC(=O)[C@H](CCC(N)=O)NC(=O)[C@H](CO)NC(=O)[C@H](Cc1ccc(O)cc1)NC(=O)[C@@H](N)CSCC(=O)Nc1ccc2c(c1)C(=O)OC21c2ccc(O)cc2Oc2cc(O)ccc21)[C@@H](C)O)C(C)C)C(=O)N[C@@H](CC(C)C)C(=O)N[C@H](C(=O)N[C@H](C(=O)N[C@H](C(=O)N[C@@H](C)C(=O)N[C@@H](CCC(=O)O)C(=O)N[C@@H](CCC(N)=O)C(=O)N[C@@H](CCC(N)=O)C(=O)O)[C@@H](C)O)[C@@H](C)O)[C@@H](C)O` [SRC1-1] (H-C(Fluorescein(5-NHCOCH2))YSQTSHKLVQLLTTTAEQQ-OH), the Kd is reported as 1210 nM. `CC[C@H](C)[C@H](NC(=O)[C@H](CCCNC(=N)N)NC(=O)[C@H](Cc1c[nH]cn1)NC(=O)[C@H](CCCCN)NC(=O)[C@H](CCC(=O)O)NC(=O)[C@H](CCC(N)=O)NC(=O)[C@H](CC(C)C)NC(=O)[C@@H](N)CSCC(=O)Nc1ccc2c(c1)C(=O)OC21c2ccc(O)cc2Oc2cc(O)ccc21)C(=O)N[C@@H](CC(C)C)C(=O)N[C@@H](Cc1c[nH]cn1)C(=O)N[C@@H](CCCCN)C(=O)N[C@@H](CC(C)C)C(=O)N[C@@H](CC(C)C)C(=O)N[C@@H](CCC(N)=O)C(=O)N[C@@H](CC(N)=O)C(=O)NCC(=O)N[C@@H](CC(N)=O)C(=O)N[C@@H](CO)C(=O)N1CCC[C@H]1C(=O)N[C@@H](C)C(=O)O` [SRC3-2] (H-C(Fluorescein(5-NHCOCH2))LQEKHRILHKLLQNGNSPA-OH) gave a Kd of 363 nM. In the case of `CC(C)C[C@H](NC(=O)[C@H](CC(=O)O)NC(=O)[C@H](CCCCN)NC(=O)[C@H](CCC(=O)O)NC(=O)[C@H](CC(=O)O)NC(=O)[C@H](CCCCN)NC(=O)[C@H](CC(=O)O)NC(=O)[C@H](CC(C)C)NC(=O)[C@H](CC(C)C)NC(=O)[C@H](Cc1ccc(O)cc1)NC(=O)[C@H](CCCNC(=N)N)NC(=O)[C@H](CC(C)C)NC(=O)[C@H](CC(C)C)NC(=O)[C@H](CCC(N)=O)NC(=O)[C@H](Cc1c[nH]cn1)NC(=O)[C@H](CC(=O)O)NC(=O)[C@H](CCCCN)NC(=O)[C@H](CO)NC(=O)[C@H](CCC(=O)O)NC(=O)[C@@H](N)CSCC(=O)Nc1ccc2c(c1)C(=O)OC21c2ccc(O)cc2Oc2cc(O)ccc21)C(=O)O` [SRC1-3], the Kd is reported as 2540 nM. `CSCC[C@H](NC(=O)[C@H](CCC(N)=O)NC(=O)[C@H](CC(=O)O)NC(=O)[C@H](CO)NC(=O)[C@H](CCCCN)NC(=O)[C@@H](NC(=O)[C@@H](NC(=O)[C@H](CC(C)C)NC(=O)[C@H](CC(C)C)NC(=O)[C@H](CCC(N)=O)NC(=O)[C@H](CC(C)C)NC(=O)[C@H](CC(C)C)NC(=O)[C@H](CCCCN)NC(=O)[C@@H](NC(=O)[C@H](CCC(N)=O)NC(=O)CNC(=O)[C@H](CCCCN)NC(=O)[C@H](CO)NC(=O)[C@H](CC(=O)O)NC(=O)[C@@H](N)CSCC(=O)Nc1ccc2c(c1)C(=O)OC21c2ccc(O)cc2Oc2cc(O)ccc21)[C@@H](C)O)[C@@H](C)O)[C@@H](C)O)C(=O)O` [SRC2-1] (H-C(Fluorescein(5-NHCOCH2))DSKGQTKLLQLLTTKSDQM-OH) showed a Kd of 927 nM.

These molecules were tested against T3, hTRβ-LBD (ligand binding domain of …) (assay: fluorescence polarization, hTRβ-LBD titrated, T3 present; Table 3 prints >AL (assay limits) for this pair). Settings: not given.
Procedure: as §1, §2, §3
For C(5‑iodoacetamidofluorescein)YSQTSHKLVQLLTTTAEQQ [SRC1-1 coregulator peptide], the Kd was 100000 nM. In the case of C(5‑iodoacetamidofluorescein)LQEKHRILHKLLQNGNSPA [SRC3-2 coregulator peptide], the Kd is reported as 100000 nM. For C(5‑iodoacetamidofluorescein)DSKGQTKLLQLLTTKSDQM [SRC2-1 coregulator peptide], the Kd was 100000 nM. For C(5‑iodoacetamidofluorescein)ESKDHQLLRYLLDKDEKDL [SRC1-3 coregulator peptide], the Kd was 100000 nM.

Each molecule was assayed against T1, hERα-LBD (ligand binding domain of …) (assay: fluorescence polarization, labelled peptide 10 nM, hERα-LBD titrated, diethylstilbestrol present). Settings: not given.
Procedure: as §1, §2, §3
C(5‑iodoacetamidofluorescein)LTARHKILHRLLQEGSPSD [SRC1-2 coregulator peptide] showed a Kd of 302 nM. CLKEKHKILHRLLQDSSSPV (5-iodoacetamidofluorescein coupled to the amino terminal cysteine, also called SRC2-2 peptide) [SRC2-2 coregulator peptide] gave a Kd of 277 nM. For C(5‑iodoacetamidofluorescein)YSQTSHKLVQLLTTTAEQQ [SRC1-1 coregulator peptide], the Kd was 853 nM. In the case of C(5‑iodoacetamidofluorescein)LQEKHRILHKLLQNGNSPA [SRC3-2 coregulator peptide], the Kd is reported as 415 nM. With C(5‑iodoacetamidofluorescein)DSKGQTKLLQLLTTKSDQM [SRC2-1 coregulator peptide] the Kd was 896 nM. Work on C(5‑iodoacetamidofluorescein)ESKDHQLLRYLLDKDEKDL [SRC1-3 coregulator peptide] yielded a Kd of 1460 nM.
